One molecule from US20020164696A1 (CHR HANSEN A S, published 2002) can be followed below.

Assay [1] deals with T1, synthetic peptide corresponding to camel kappa-CN (camel).
T1 construct: Synthetic substrate peptide, free N- and C-terminus as printed; also called Cd kappa-CN; Cd kappa-CN peptide
T1 peptide: RPRPRPS[Phe(4-NO2)]IAI
In words: cleavage kinetics of the synthetic peptide at pH 5.6, Lineweaver-Burke plots; binding inferred from KM. On the procedure: (§1) Two synthetic peptidases, which correspond to the chymosin sensitive regions of camel- and bovine κ-casein (CN), were proteolytically cleaved with bovine and camel chymosin, respectively. KM and kcat were determined at pH 5.6. Additionally, temperature and pH optima of these reactions were measured. The two following synthetic peptides were used in this study:
(§2) The measurement of samples was repeated 3 to 6 times, the Michaelis-Menten and the turnover values were determined from Lineweaver-Burke plots with weighted linear regression of data.

Assay [2] has as its target T2, synthetic peptide corresponding to bovine kappa-CN (bovine).
T2 construct: Synthetic substrate peptide, free N- and C-terminus as printed; also called Bt kappa-CN; bovine kappa-CN peptide
T2 peptide: HPHPHLS[Phe(4-NO2)]MAI
The description is as above. On the procedure:
as §1, §2

Square brackets hold non-standard residues; d marks the D form. Ends that are not written are not given here. Phe(4-NO2) = N[C@@H](Cc1ccc([N+](=O)[O-])cc1)C(=O)O

B1: recombinant Camelus dromedarius chymosin (enzyme, UniProt Q9GK11 59-381, looked up)
chain: GKVAREPLTSYLDSQYFGKIYIGTPPQEFTVVFDTGSSDLWVPSIYCKSNVCKNHHRFDPRKSSTFRNLGKPLSIHYGTGSMEGFLGYDTVTVSNIVDPNQTVGLSTEQPGEVFTYSEFDGILGLAYPSLASEYSVPVFDNMMDRHLVARDLFSVYMDRNGQGSMLTLGAIDPSYYTGSLHWVPVTLQQYWQFTVDSVTINGVAVACVGGCQAILDTGTSVLFGPSSDILKIQMAIGATENRYGEFDVNCGNLRSMPTVVFEINGRDYPLSPSAYTSKDQGFCTSGFQGDNNSELWILGDVFIREYYSVFDRANNRVGLAKAI
notes: mature; also called Cd chymosin; camel chymosin
For the molecule B1, the “substrate binding relative to bovine chymosin” value in assay [1] and in assay [2] was around 2 fold each time.
